Key:
Settings in all cases: protein: recombinant; label: fluorescein-dT at T8; single-chain dumbbell, 18 bp with central nick, two tetraloops
[1] = biological target: PARP-1 F2 K141I/K142I (Homo sapiens, UniProt P09874 103-214, K141I;K142I); test: fluorescence anisotropy; 25 mM NaCl; apparent, one-site model; FA: 50 mM Tris-HCl pH 7, 150 uM ZnSO4, 4 mM DTT, 0-200 mM NaCl, 25 C, 10 nM DNA (mutants 25 nM DNA, 25 mM NaCl); EMSA: 50 mM Tris-HCl pH 7.4, 150 uM ZnSO4, 4 mM DTT, 10% glycerol, RT incubation, gel at 4 C; NMR complexes: 50 mM Tris pH 7.0, 150 uM ZnSO4, 4 mM DTT, 37 C
[2] = biological target: T1, PARP-1 F1+F2 (24-kDa DBD) (Homo sapiens, UniProt P09874 1-214); test: fluorescence anisotropy; 25; 50 mM Tris-HCl pH 7.0, 150 uM ZnSO4, 4 mM DTT, 25 C; NaCl 0-200 mM (T2, as in cof; 10 nM DNA) or 25 mM (T3 mutants; 25 nM DNA)
[3] = biological target: T1, PARP-1 F1+F2 (24-kDa DBD); test: fluorescence anisotropy; 100; 50 mM Tris-HCl pH 7.0, 150 uM ZnSO4, 4 mM DTT, 25 C; NaCl 0-200 mM (T2, as in cof; 10 nM DNA) or 25 mM (T3 mutants; 25 nM DNA)
[4] = biological target: T2, PARP-1 F2 (Homo sapiens, UniProt P09874 103-214); test: as above
[5] = biological target: T1, PARP-1 F1+F2 (24-kDa DBD); test: fluorescence anisotropy; 150; 50 mM Tris-HCl pH 7.0, 150 uM ZnSO4, 4 mM DTT, 25 C; NaCl 0-200 mM (T2, as in cof; 10 nM DNA) or 25 mM (T3 mutants; 25 nM DNA)
[6] = biological target: PARP-1 F2 S120G (Homo sapiens, UniProt P09874 103-214, S120G); test: fluorescence anisotropy; 25 mM NaCl, one-site fit; 50 mM Tris-HCl pH 7.0, 150 uM ZnSO4, 4 mM DTT, 25 C; NaCl 0-200 mM (T2, as in cof; 10 nM DNA) or 25 mM (T3 mutants; 25 nM DNA)
[7] = biological target: PARP-1 F2 K142I (Homo sapiens, UniProt P09874 103-214, K142I); test: as above
[8] = biological target: PARP-1 F2 K141I (Homo sapiens, UniProt P09874 103-214, K141I); test: as above
[9] = biological target: PARP-1 F2 K131I/G135D (Homo sapiens, UniProt P09874 103-214, K131I;G135D); test: as above
[10] = biological target: PARP-1 F2 K134I (Homo sapiens, UniProt P09874 103-214, K134I); test: as above
[11] = biological target: PARP-1 F2 W157I (Homo sapiens, UniProt P09874 103-214, W157I); test: as above
[12] = biological target: PARP-1 F2 K197I (Homo sapiens, UniProt P09874 103-214, K197I); test: as above
[13] = biological target: T1, PARP-1 F1+F2 (24-kDa DBD); test: fluorescence anisotropy; 75; 50 mM Tris-HCl pH 7.0, 150 uM ZnSO4, 4 mM DTT, 25 C; NaCl 0-200 mM (T2, as in cof; 10 nM DNA) or 25 mM (T3 mutants; 25 nM DNA)
[14] = biological target: T2, PARP-1 F2; test: as above

T1 sequence (P09874 1-214): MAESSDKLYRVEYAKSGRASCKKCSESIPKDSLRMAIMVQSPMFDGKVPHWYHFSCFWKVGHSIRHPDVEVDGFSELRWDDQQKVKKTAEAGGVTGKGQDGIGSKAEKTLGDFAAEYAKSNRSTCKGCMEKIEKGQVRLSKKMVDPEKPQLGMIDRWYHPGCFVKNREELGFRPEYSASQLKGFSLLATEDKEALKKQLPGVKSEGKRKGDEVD
T2 sequence (P09874 103-214): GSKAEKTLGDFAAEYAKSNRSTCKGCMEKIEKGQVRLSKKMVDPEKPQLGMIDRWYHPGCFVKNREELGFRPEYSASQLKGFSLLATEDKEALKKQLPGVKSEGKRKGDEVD
Chain of PARP-1 F2 K197I (P09874 103-214 K197I): as the sequence (P09874 103-214) above, with K95I counted along it
Chain of PARP-1 F2 K131I/G135D (P09874 103-214 K131I/G135D): as the sequence (P09874 103-214) above, with K29I, G33D counted along it
Chain of PARP-1 F2 W157I (P09874 103-214 W157I): as the sequence (P09874 103-214) above, with W55I counted along it
Chain of PARP-1 F2 K141I/K142I (P09874 103-214 K141I/K142I): as the sequence (P09874 103-214) above, with K39I, K40I counted along it
Chain of PARP-1 F2 K142I (P09874 103-214 K142I): as the sequence (P09874 103-214) above, with K40I counted along it
Chain of PARP-1 F2 S120G (P09874 103-214 S120G): as the sequence (P09874 103-214) above, with S18G counted along it
Chain of PARP-1 F2 K141I (P09874 103-214 K141I): as the sequence (P09874 103-214) above, with K39I counted along it
Chain of PARP-1 F2 K134I (P09874 103-214 K134I): as the sequence (P09874 103-214) above, with K32I counted along it

B1: 44-nt nicked dumbbell, 5'-phosphate, fluorescein-dT (structured_DNA)
DNA: CGGTCGATCGTAAGATCGACCGGCGCTGGAGCTTGCTCCAGCGC
modifications: 5'-phosphate
Kd [1]: 3930 nM | Kd [2]: 20.4 nM | Kd [3]: 9.37 nM | Kd [4]: 146 nM | Kd [5]: 24.6 nM | Kd [6]: 2430 nM | Kd [7]: 1180 nM | Kd [8]: 1490 nM | Kd [9]: 3750 nM | Kd [10]: 3330 nM | Kd [11]: 4930 nM | Kd [12]: 664 nM | Kd [13]: 37 nM | Kd [14]: 218 nM
